Experimental data: the nanobody polyreactivity screen of Harvey et al. (2022)

Experiment: yeast display, Sf9 membrane polyspecificity reagent, FACS + sequencing; frameworks hold sequencing errors
Method in brief: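 A nanobody's polyreactivity label depends on the gate it was sorted from. Yeast display cells were stained with 10% biotinylated, detergent-solubilized Sf9 membrane reagent for 1 hour at 4 °C, enriched on streptavidin microbeads and sorted by FACS. The low and high (top ~1%) gates were set on anti-HA fluorescence for expression and streptavidin fluorescence for reagent binding.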

Row | Sequence | polyreactivity (PSR sort gate)
1 | QVQLVESGGGLVQAGGSLRLSCAASGRTLFVYAMGWYRQAPGKEREFVAAIRWRGGSTYYADSVKGRFTISRDNAKNTVYLQMNSLKPEDTAVYYCAADTYWVKTDYLYGYWGQGTQVTVSS | high polyreactivity
2 | QVQLVESAGGLVQAGGSLRLSCAASGYIFWENAMGWYRQAPGKERELVAAITVSGGGTYYADSVKGRFTISRDNAKNTVYLQMNSLKPEDTAVYYCAADEDNPWLWFYYWGHGTQVTVSS | low polyreactivity
3 | QVQLVESGGGLVQAGGSLRLSCAASGFIFGYYVMGWSRQAPGKERELVAAISGSGGRTYYADSVKGRFTISRDNAKNTVYLQMNSLKPEDTAVYYCNAVAFYRDYNYWGQGTQVTVSS | high polyreactivity
4 | QVQLVESGGGLVQAGGSLRLSCAASGSIFWSNAMGWYRQAPGKERELVAAITWSGGSTYADSVKGRFTISRDNAKNTVYLQMNSLKPEDTAVYYCATDYPWAWFESDYWGQGTQVTVSS | low polyreactivity
5 | QFQLVESGGGLVQAGGSLRLRCAATGSNFYVYALGWYRQAPGKETELVAAIRRTGSSTYYADSVKGRFTMSRDNAKNTDYLQMNSLKPEDTAVYYCAARYWRARAGSYDYWGQGTQVTVSS | high polyreactivity
6 | QDQLVESAGGLVQAGGSLRLSCAASGNTFSTNPLGSYRQAAGKERELVATISRNGGSTSYAVSVKGRFTISRDNAKNSDYLKMYSLKAEDTAVYYCAARSVRPGPFSDDYWGQGTQVTVSS | low polyreactivity
7 | QVQLVESGGGLVQAGGSLRLSCAASGNTFYQYAMGWYRQAPGKERELVAAIDWSGGSTYADSVKGRFTISRDNAKNTVYLQMNSLKPEDTAVYYCNASVKPSNVWSRGYDYWGQGTQVTVSS | low polyreactivity
8 | QVQLVESGGGLVQAGGSLRLSCAASGRTSVINAMGWYRQATGKERELVAAITKRGGSTYYADSVKGRFTISRDNAKNTVYLQMNSLKPEDTAVYYCAKYAISIQYDSWGQGTQVTVSS | high polyreactivity
9 | QVQLVETGGGLVQAGGTLRLSCADSGSIYEDNAKGWYRQAPGKERELDAAITWSGDSTYYADSVKGRFTISRDTEKNTVYLQMNSLKPEDTAVYYCNTYRIFCYSRYYAGYDYWGQGTQVTVSS | low polyreactivity
10 | QVQLVESGGGLVQAGGSLRLSCAASGSTFRYYAMGWYRQAPGKERELVAAISRSGGRTYYADSVKGRYTISRDYAKKTVYLQMNSLKPEDTAVYYCAVDIVSIRGYTYGYWGQGTQVTVSS | high polyreactivity
11 | QVQLVESGGGLVQAGGSLRLSCAASGIIFFYYAMGWYRQAPGKERELVAANSSDGSTYYADSVKGRFTISRDNAKNTVYLQMNSLKPEDTAVYYCAVDHYSARLLARYDYWGQGTQVTVSS | low polyreactivity
12 | QVQLVESGGGLVHAGGSIRLSCAASGRIFDSNAMGRYRQAPGKEREVVAAITYSGGGTFYADSVKGRFTSSRDNAKNTVYLQMNCLKPEDTAVYYCNKLPHYFGPVYWFKGDDGYWGQGTQVTVTS | high polyreactivity
13 | QVQLVESGGGLVQAGGSLRLSCAASGITFLEYAMGWYRQAPGKERELVATINSGGSTNYADSVKGRFTISRDNAKNTVYLQMNSLKPVDTAVYYCAADYGSDYTKGDYWGQGTQVTVSS | low polyreactivity
14 | QVQLVESGGGLVQAGGSLRLSCAASGSTFVIYDMGWYRQAPGKERELVAAISYSGGSTYYADSVKGRFTISRDNAKNTVYLQMNSLKPEDTAVYYCAAEGRSDWGGDDYYWGQGTQVTVSS | low polyreactivity
15 | QVQLVESGGGLVQAGGSLRLSCAASGGIFPGNTMGWYRLAPRKESELVAAISNGVSTNYADSVKGRFTISRDNAKNTVYLQMNSLKPEDTAVYYCAADWSWWDGEDYHFEYDYWGQGTQVTVSS | low polyreactivity
16 | QVQLVESGGGLVQAGGSLRLSCAASGFTFPVNTMGWYRQAPGKERELVAAISTSGAGTYYADSVKGRFTISRDNAKNTVYLQMNSLKPEDTAVYYCNADSQPGPYPGIRYDYWGQGTQVTVSS | high polyreactivity
17 | QVQLVESGGGLVQAGGSLRLSCAASGITLHHNAMGWYRQAPGKERELVAAITSNGGSTYYADSVKGRFTISRDNAKNTVYLQMNSLKPEDTAVYYCARDSKRLARYYYWGQGTQVTVSS | low polyreactivity
18 | QVQLVESGGGLVEAGGSLRLSCAATGRTIRAYAMGWYRPEPGKERELVASISSGGSTKYADSVKGRFTISRDNAKNTVYLQMNSLKPEDTAVYFCAADRLLYGVDYWGQGTEVTVSS | low polyreactivity
19 | QVQLVESGGGLVQAGGSLRLSCAASGFIFWYYTMGGYRQAPGKERELVAAISRSGASTYYADSVKGRFTISRDNAKNTVYLQMNSLKPEDTAVYYCAKDYQTYSGSSDFDYWGQGTQVTVSS | high polyreactivity
20 | QVQLVESGGGLVQAGGSLRLSSAASGITIRYNDMGWYRQAPGKERELVAAITFSGGSTYYPDSVKGRFTISRDNAMNTVYLQMNSLKPEDTAVYYCAKLGSTSSRGNYDYWGQGTQVTVSS | low polyreactivity
21 | QVQLVESGGGLVQAGGSLRLSCAASGRISYYYLGWYRQAPGKERELVAAISWNGGRTYYADSVKGRFTISRDNAKNTVYLQMNSLKPEDTAVYYCAAKTGYYPYGYWGQGTQVTVSS | high polyreactivity
22 | QVQLVESGGGLVQAGGSLRLSCAASGSTFLKNAMGWYRQAPGKERELVAAISYSTTRTYYADSVKGRFTISRDNAKNTVYLQMNSLKPEDTAVYSCNARWQEPLKYDYWGQGTQVTVSS | low polyreactivity

Row | Sequence | polyreactivity (PSR sort gate)
23 | QVQLVESGGGLVQAGGSLRLSCAASGRTFYRYAMGWYRQAPGKERELVAAISSGGSTNYADSVKGRFTISRDNAKNTVYLQMNSLKPEDTAVYYCAAETRLHRQDYDYWGQGTQVTVSS | low polyreactivity
24 | QVQLVESGGGLVQAGGSLRLSCAASGLIFARNAMGWYRQSPGKERELVAAITRGGSTYYADSVKGRFTISRDNAKNTVYLQMNSLKPEDTAVYYCNADYAYNSYGYRFYYWGQGTQVTVSS | high polyreactivity
25 | QVQLVESGGGLVQAGGSLPLSCAASGSTFSYYAMGWYRQAPGKERELVAAITSGGSTYYADSVKGRFTISRDNAKNTVYLQMNSLKPEDTAVYYCNAEPYTSSGGYRAYDFDYWGQGTQVTVSS | low polyreactivity
26 | QVQLVESGGGLVQAGGSLRLSCAASVRTFLYNAMGWYRQAPGKERELVASITTSGGSTYYADSVKGRFTISRDNAKNTVYLQMNSLKPEDTAVYYCAAGLPKWYDYGRLVKYNYWGQGTQVTVSS | low polyreactivity
27 | QVKLVESVGGLVQAGGRLRLSCAASGSILYFNAMGWYRQAPGKERELVAAISKSGGRTYYADSVKGRFTISRDNAKNTVYLQMNCLKPEDTAVYYCAKDNYWGQGTQVTVSS | high polyreactivity
28 | QVQLVESGGGLVQAGGSLRLSCAASGLTFGVNAMGWYRQAPGKERELVAAISGSGGRTNYADSVKGRFTISRDNAKNTVYLQMNSLKPEDTAVYYCNARFPDWALSEISHSTTYGYWGQGTQVTVSS | low polyreactivity
29 | QVQLVESGGGLVQAGGSLRLSCAASGFTFARYAMGWYRQAPGKERELVAAITYSGSGTYYADSVKGRFTISRDNAKNTVYLQMNSLKPEDTAVYYCYPVTRSARSYDYWGQGTQVTVSS | high polyreactivity
30 | QVQLVESGGGLVQAGGSLRLSCAASGITFLRYAMGWYRKSPGKERELVARISSGGRTDYADSVKGRFTISRDNAKNTVYLQMNSLKPEDSAVYYCNATVYEWHTEYDYWGQGTQVTVSS | high polyreactivity
31 | QVQLVESGGGLVQAGGSLRLSCAASGRTIVFNAMGWYRQAPGKERELVAAITKNGGSTYYADSVKGRFTISRDNAKNTVYLQMNSLKPEDTAVYYCAVRRGYPFFYWGQGTQVTVSS | low polyreactivity
32 | QVQLVESGGGLVQAGGSLRLSCAASGITFWLYAMGWYRQAPGKERELVAAISYSGGSTYYADSVKGRFTISRDNAKNTVYLQMNSLKPEETEVYYCNTGSRYRPNRRYGYWGQGTQVTVSS | high polyreactivity
33 | QVQLVESGGGLVQAGGSLRLSCAASGFILVFYARGWYRPAPGKERELVAAIDWSGTITYYADSVKGRFTISRDNAKNTVYLQMNSLKPEDTAVYYCAADGEPFYDFYYWGQGTQVTVSS | high polyreactivity
34 | QFQLVESGGGLVQAGGSLRLSCAASGSIFLWYAMGWYRQAPGKERELVAVITSSGGTTYYADSVKGRFTISRDNAKNTVYLQMNCMKPEDNAVYYSAADFYRHPPGSLTKLYYYWGQGTQVTVSS | low polyreactivity
35 | QVQLVVSGGGLVQAGGSLRLSCAASGRTFPGNAMGGYRQAPGKERELVASINGRTTRTYYADSVKGRFTISRDNAKNTVYLQMNSLKPEDTAVYYCAADPPGYVYGKRYYWGQGTQVTVSS | high polyreactivity
36 | QVQLVESGGGLVQAGGSLRLSCAASGSNFDLNAMGLYRQAPGKERELVAAISSGGGTYYADSVKGRFTIARDNAKNTVYLQMNSLKPEDTAVYYCNRVTRWTYNYWGQGTQVTVSS | high polyreactivity
37 | QDQLVESGGGLVQAGGSLRLSCAASGSTVYFNAMGWYRPAPGKERELVASITSGGSTNYADSVKGRFTISRDNAKNTVYLQMNCLKPEDTAVYYCAAGLYLQGPLDYWGQGTQVTVSS | low polyreactivity
38 | QVQLVESGGGLVQAGGSLRLSCSASGSTFGRYVMGWYRQPPGKERELVAAISKNAGSTYYADSVKGRFTISRDNAKNTVYLQMNSLKPEDTAVYYCNTVYYWYSPLNYWGQGTQVTVSS | high polyreactivity
39 | QVQLVESGGGLVQAGGSLRLSCAASGFTFERNTMGWYRQAPGKERELVSTITRRGTSTYYADSVKGRFTISRDNAKNTVYLQMNSLKPEDTAVYYCAVYGYRTKYGYWGQGTQVTVSS | high polyreactivity
40 | QVQLVESGGGLVQAGGSLRLSCAASGRILYLNAMGWYRQAPGKERELVAAITRRAGSTRYADSVKGRFTISRDNAKNTVYLQMNSLKPEDTAVYYCAVAYYRNRMDYWGQGTQVTVSS | high polyreactivity
41 | QVQLVESGGGLVQAGGSLRLSCAASGRIFTVYALGWSRQAPGKERELVAAISRGRSTYADSVKGRFTISRDNAKNTVYLQLNSLKPEDTGVYYCAAVNFRKGEDYWGQGTQVTVSS | high polyreactivity
42 | QVQLVESGGGLVQAGGSLRLSCAASGFIFDTYVRGWYRQAPGKERELVAAISRTGGRTYYADSVKGRFTISRDNAKNTLYLQMNSLKPEDTAVYYCAARQSTQSGSYRRYNYWGQGTQVTVSS | high polyreactivity
43 | QVQLVESGGGLVQAGGSLRLSCAASGNTFFKNAMGWYRQAPGKERELVAAISKRGGSTYYADSVKGRFTISRDNAKNTVYLQMNSLIPEDTAVYYCAADTFGVYASTYDYWGQGTQVTVSS | high polyreactivity
